The source of these data is patent US7255859.

Test [1] addresses Bio-N-HA (biotinoyl-ε-Aca-…-amide) (human influenza virus). The test can be described thus: SPR (BIACORE), biotinylated peptide on streptavidin chip, antibody in solution.
The target in test [2] is Bio-C-HA (acetyl-… (ε-biotinoyl)-amide) (human influenza virus). Described as above.
For test [3], the target named is epitope … (98-106) of the haemagglutinin of the human influenza virus (human influenza virus). The test can be described thus: rounded affinity in the description; antigen not given.
Test [4] deals with Glutathione-S-transferase modified with the HA epitope (GST-HA) (human influenza virus). The test can be described thus: Western blot, 4 ng GST-HA per lane, primary antibody titrated; chemiluminescence.
Test [5] deals with Green-fluorescent protein modified with the HA epitope (GFP-HA) (human influenza virus) [GFP: P42212]. As to the kind of experiment: immunoprecipitation of 50 ng GFP-HA with protein G, then Western blot. (A western blot detects proteins with antibodies after separation by electrophoresis.)
Test [6] has as its target Glutathione-S-transferase modified with the HA epitope (GST-HA) (human influenza virus). As to the kind of experiment: Western blot of serially diluted GST-HA; 0.1 µg/ml 3F10 against 1 µg/ml 12CA5; chemiluminescence.
Test [7] shares this target. As to the kind of experiment: Western blot of serially diluted GST-HA with antibody-peroxidase conjugate (20 mU/ml); chemiluminescence.
For test [8] the target is unchanged. The test can be described thus: Western blot of serially diluted GST-HA with antibody-peroxidase conjugate (100 ng/ml); chemiluminescence.

In test [1], anti-HA BabCo (antibody) had a Ka of 2.3e+07 M⁻¹, a koff of 0.0005 s⁻¹ and a kon of 12000 M⁻¹ s⁻¹. In test [2], this substance yielded a Ka of 9.3e+06 M⁻¹, an off-rate (koff) of 0.001 s⁻¹ and a kon of 9500 M⁻¹ s⁻¹. The Ka in test [3] was found to be 1e+07 M⁻¹.

As to mAB 12CA5 (antibody), in test [1], the Ka stood at 2.6e+08 M⁻¹, the koff turned out to be 0.00021 s⁻¹ and the kon was 53000 M⁻¹ s⁻¹. In addition, in test [2], the Ka is 9.2e+07 M⁻¹, the koff turned out to be 0.00026 s⁻¹ and the kon amounted to 23000 M⁻¹ s⁻¹. This substance gave an antibody concentration at which the antibody becomes the limiting factor in test [4] of under 2000 ng/mL. The substance further came in with a Ka in test [3] of 1e+08 M⁻¹.

On to mAB R 3F10 (antibody), for which the fold lower antibody quantity to precipitate the antigen against clone 12CA5 in test [5] was under 20 fold. In test [1], this substance showed a Ka of 6.8e+09 M⁻¹, a koff of 9.1e-05 s⁻¹ and a kon of 620000 M⁻¹ s⁻¹. Besides, in test [2], the Ka came out at 1.2e+10 M⁻¹, the koff came out at 4.8e-05 s⁻¹ and the association rate constant (kon) came out at 590000 M⁻¹ s⁻¹. In addition, in test [4], the antibody concentration at signal saturation stood at 125 ng/mL and the fold lower antibody concentration for comparable signals against clone 12CA5 is 20 fold. Also, in test [3], the Ka is 1e+10 M⁻¹; the fold higher affinity than 12CA5 and BabCo turned out to be 30 fold. In addition, the fold lower detectable amount of GST-HA against clone 12CA5 in test [6] was 30 fold.

For “peroxidase conjugate of the clone 3F10 (antibody)”, in test [7], the amount still detected stood at 40 pg GST-HA.

In test [8], “peroxidase conjugate of the clone 12CA5 (antibody)” returned a detection limit of 1 ng GST-HA.

The term koff denotes the rate constant with which the complex falls apart. Lower therefore signals a long-lived complex. In general, kon refers to the second-order rate constant of association.
